Laboratory results: patent publication US20200247856A1 (SHIRE HUMAN GENETIC THERAPIES, published 2020)

T1: Activin A (R&D Systems, Catalog number 338-AC-050 CF) (UniProt P08476 311-426)
T1 sequence (looked up): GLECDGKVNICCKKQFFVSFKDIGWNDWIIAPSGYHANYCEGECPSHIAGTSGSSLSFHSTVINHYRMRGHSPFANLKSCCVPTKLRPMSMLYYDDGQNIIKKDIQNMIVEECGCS

T2: Myostatin (R&D Systems, Catalogue number 788-G8-010/CF) (UniProt O14793 267-375)
T2 sequence (looked up): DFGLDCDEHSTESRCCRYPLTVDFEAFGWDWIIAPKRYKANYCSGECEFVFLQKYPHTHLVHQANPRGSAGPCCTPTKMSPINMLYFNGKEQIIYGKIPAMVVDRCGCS


Experiments:
[1] = target: T1, Activin A (R&D Systems, Catalog number …); experiment: cell-based or functional assay
[2] = target: T2, Myostatin (R&D Systems, Catalogue …); experiment: cell-based or functional assay

Row | Binder | Activin A IC50 (nM), luciferase gene reporter assay (Smad3, A204 cells) [1] [nM] | Myostatin IC50 (nM), luciferase gene reporter assay (Smad3, A204 cells) [2] [nM]
1 | ActRIIB-Fc protein (R&D Systems, Catalogue number 339-RBB-100) (Fc fusion, UniProt Q13705 19-134, looked up, not shown: a dimerising Fc or GST) SGRGEAETRECIYYNANWELERTNQSGLERCEGEQDKRLHCYASWRNSSGTIELVKKGCWLDDFNCYDRQECVATEENPQVYFCCCEGNFCNERFTHLPEAGGPEVTYEPPPTAPT | 0.5 | 0.5
2 | FS315K(76,81,82)E-mFc (Fc fusion, not shown: a dimerising Fc or GST) GNCWLRQAKNGRCQVLYKTELSKEECCSTGRLSTSWTEEDVNDNTLFKWMIFNGGAPNCIPCKETCENVDCGPGKECRMNEENKPRCVCAPDCSNITWKGPVCGLDGKTYRNECALLKARCKEQPELEVQYQGRCKKTCRDVFCPGSSTCVVDQTNNAYCVTCNRICPEPASSEQYLCGNDGVTYSSACHLRKATCLLGRSIGLAYEGKCIKAKSCEDIQCTGGKKCLWDFKVGRGRCSLCDELCPDSKSDEPVCASDNATYASECAMKEAACSSGVLLEVKHSGSCNSISEDTEEEEEDEDQDYSFPISSILEW | 0.8 | 0.7
